In the supplement of paper PMC9112550, “Optimization of the antimicrobial peptide Bac7 by deep mutational scanning” (BMC Biology, 2022):

Test system: Escherichia coli TOP10
Assay: shrunken log2 fold change of peptide-encoding DNA abundance (4.5 h post-induction vs induction); higher = less antimicrobial activity (less host growth inhibition)
Settings: time post-induction: 4.5 h; library: site-saturation at positions 5, 18, 19, 20
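Also: peptides expressed intracellularly from a pBAD plasmid library in pooled LB shake-flask culture, induced with 0.3% L-arabinose, DNA abundance read by NGS, three biological replicates, DESeq2 with apeglm shrinkage.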

| Sequence | shrunken log2 fold change |
| --- | --- |
| RRIRHRPPRLPRPRPRPKCVPRP | -0.069 |
| RRIRCRPPRLPRPRPRPNVRPRP | -0.000423 |
| RRIRCRPPRLPRPRPRPLGMPRP | -0.433 |
| RRIRARPPRLPRPRPRPCAMPRP | 0.397 |
| RRIRGRPPRLPRPRPRPQYYPRP | -0.399 |
| RRIRCRPPRLPRPRPRPHIHPRP | -0.759 |
| RRIRDRPPRLPRPRPRPSNHPRP | -0.548 |
| RRIRNRPPRLPRPRPRPILQPRP | -0.387 |
| RRIRMRPPRLPRPRPRPLETPRP | 2.02 |
| RRIRDRPPRLPRPRPRPWLIPRP | -0.138 |
| RRIRPRPPRLPRPRPRPPYVPRP | -0.0964 |
| RRIRCRPPRLPRPRPRPKFYPRP | -0.309 |
| RRIRARPPRLPRPRPRPSCLPRP | -0.0189 |
| RRIRIRPPRLPRPRPRPSWNPRP | -0.49 |
| RRIRYRPPRLPRPRPRPEPYPRP | -0.288 |
| RRIRFRPPRLPRPRPRPWNKPRP | -0.722 |
| RRIRRRPPRLPRPRPRPCFLPRP | -0.269 |
| RRIRIRPPRLPRPRPRPGKHPRP | -0.222 |
| RRIRSRPPRLPRPRPRPRFGPRP | 0.342 |
| RRIRRRPPRLPRPRPRPKYDPRP | -0.466 |
| RRIRQRPPRLPRPRPRPTQIPRP | 0.223 |
| RRIRGRPPRLPRPRPRPSFMPRP | 0.0373 |
| RRIRVRPPRLPRPRPRPSIYPRP | -0.482 |
| RRIRMRPPRLPRPRPRPDQWPRP | 0.312 |
| RRIRDRPPRLPRPRPRPKWLPRP | 0.223 |

| Sequence | shrunken log2 fold change |
| --- | --- |
| RRIRGRPPRLPRPRPRPWLVPRP | 0.422 |
| RRIRMRPPRLPRPRPRPVGRPRP | 0.724 |
| RRIRDRPPRLPRPRPRPWGLPRP | 0.0419 |
| RRIRERPPRLPRPRPRPTDIPRP | -0.0479 |
| RRIRHRPPRLPRPRPRPLEGPRP | 0.0244 |
| RRIRWRPPRLPRPRPRPQGSPRP | -0.00843 |
| RRIRVRPPRLPRPRPRPFDSPRP | -0.204 |
| RRIRDRPPRLPRPRPRPAEEPRP | 0.168 |
| RRIRGRPPRLPRPRPRPLMPPRP | 0.285 |
| RRIRLRPPRLPRPRPRPNEEPRP | 0.00826 |
| RRIRTRPPRLPRPRPRPGRRPRP | 0.244 |
| RRIRNRPPRLPRPRPRPLNFPRP | -0.71 |
| RRIRKRPPRLPRPRPRPMNGPRP | -0.0531 |
| RRIRYRPPRLPRPRPRPTPIPRP | -0.158 |
| RRIRMRPPRLPRPRPRPQQKPRP | 0.0182 |
| RRIRMRPPRLPRPRPRPHIKPRP | -0.501 |
| RRIRFRPPRLPRPRPRPAQCPRP | 0.0148 |
| RRIRWRPPRLPRPRPRPLPIPRP | -0.0952 |
| RRIRKRPPRLPRPRPRPHAPPRP | 0.485 |
| RRIRMRPPRLPRPRPRPNTIPRP | -0.3 |
| RRIRHRPPRLPRPRPRPTIWPRP | -0.284 |
| RRIRKRPPRLPRPRPRPFCNPRP | 0.128 |
| RRIRERPPRLPRPRPRPTKAPRP | 0.043 |
| RRIRYRPPRLPRPRPRPVGNPRP | -0.0681 |
| RRIRIRPPRLPRPRPRPYYGPRP | -2.94 |

| Sequence | shrunken log2 fold change |
| --- | --- |
| RRIRSRPPRLPRPRPRPQMIPRP | -0.292 |
| RRIRIRPPRLPRPRPRPASNPRP | -0.205 |
| RRIRVRPPRLPRPRPRPYDRPRP | -0.00895 |
| RRIRDRPPRLPRPRPRPRRQPRP | 0.161 |
| RRIRDRPPRLPRPRPRPYKMPRP | -0.17 |
| RRIRARPPRLPRPRPRPTPCPRP | 0.323 |
| RRIRVRPPRLPRPRPRPFHQPRP | 0.032 |
| RRIRQRPPRLPRPRPRPDAYPRP | -0.228 |
| RRIRFRPPRLPRPRPRPSYMPRP | -1.21 |
| RRIRKRPPRLPRPRPRPWSKPRP | 0.00888 |
| RRIRFRPPRLPRPRPRPERYPRP | 0.0915 |
| RRIRLRPPRLPRPRPRPFAAPRP | 0.281 |
| RRIRRRPPRLPRPRPRPIIVPRP | 0.0931 |
| RRIRWRPPRLPRPRPRPEACPRP | 1.5 |
| RRIRARPPRLPRPRPRPHIQPRP | -0.164 |
| RRIRYRPPRLPRPRPRPFQTPRP | -0.0251 |
| RRIRPRPPRLPRPRPRPVEAPRP | 0.481 |
| RRIRMRPPRLPRPRPRPVMQPRP | -0.221 |
| RRIRGRPPRLPRPRPRPVFSPRP | 0.0314 |
| RRIRQRPPRLPRPRPRPQWRPRP | 0.419 |
| RRIRGRPPRLPRPRPRPHGDPRP | 1.11 |
| RRIRVRPPRLPRPRPRPDTAPRP | -0.164 |
| RRIRHRPPRLPRPRPRPCNQPRP | -0.185 |
| RRIRFRPPRLPRPRPRPYQYPRP | 0.0631 |
| RRIRRRPPRLPRPRPRPPLHPRP | 0.695 |

| Sequence | shrunken log2 fold change |
| --- | --- |
| RRIRPRPPRLPRPRPRPHTPPRP | -0.0561 |
| RRIRWRPPRLPRPRPRPPPQPRP | 0.905 |
| RRIRYRPPRLPRPRPRPLAYPRP | -0.15 |
| RRIRMRPPRLPRPRPRPPVQPRP | 0.378 |
| RRIRFRPPRLPRPRPRPTNRPRP | -0.346 |
| RRIRHRPPRLPRPRPRPYCRPRP | -0.0455 |
| RRIRSRPPRLPRPRPRPTIPPRP | -0.104 |
| RRIRSRPPRLPRPRPRPNITPRP | -0.582 |
| RRIRERPPRLPRPRPRPTADPRP | 0.0264 |
| RRIRVRPPRLPRPRPRPKWYPRP | -0.194 |
| RRIRLRPPRLPRPRPRPETDPRP | 0.0033 |
| RRIRSRPPRLPRPRPRPSDSPRP | -0.612 |
| RRIRFRPPRLPRPRPRPGDGPRP | 0.264 |
| RRIRIRPPRLPRPRPRPCPTPRP | -0.0511 |
| RRIRCRPPRLPRPRPRPKGLPRP | -0.134 |
| RRIRRRPPRLPRPRPRPCRNPRP | 0.0376 |
| RRIRGRPPRLPRPRPRPTHKPRP | 0.854 |
| RRIRERPPRLPRPRPRPPRDPRP | 0.226 |
| RRIRHRPPRLPRPRPRPYDCPRP | -0.0596 |
| RRIRSRPPRLPRPRPRPDKHPRP | -0.402 |
| RRIRKRPPRLPRPRPRPDSSPRP | 0.0149 |
| RRIRERPPRLPRPRPRPYYIPRP | -0.262 |
| RRIRSRPPRLPRPRPRPVDKPRP | -0.175 |
| RRIRFRPPRLPRPRPRPDSLPRP | -0.204 |
| RRIRGRPPRLPRPRPRPILGPRP | -0.0749 |

| Sequence | shrunken log2 fold change |
| --- | --- |
| RRIRNRPPRLPRPRPRPHALPRP | 0.0517 |
| RRIRPRPPRLPRPRPRPQTCPRP | 0.111 |
| RRIRVRPPRLPRPRPRPKAWPRP | 0.0531 |
| RRIRQRPPRLPRPRPRPFVNPRP | -0.545 |
| RRIRNRPPRLPRPRPRPLCHPRP | -0.359 |
| RRIRNRPPRLPRPRPRPVSFPRP | 0.0749 |
| RRIRHRPPRLPRPRPRPYWRPRP | -0.347 |
| RRIRERPPRLPRPRPRPFLIPRP | -0.728 |
| RRIRLRPPRLPRPRPRPRVPPRP | 0.264 |
| RRIRERPPRLPRPRPRPFRSPRP | -0.0241 |
| RRIRPRPPRLPRPRPRPWKFPRP | -0.0127 |
| RRIRWRPPRLPRPRPRPWIWPRP | 0.0705 |
| RRIRWRPPRLPRPRPRPAIKPRP | 0.0964 |
| RRIRHRPPRLPRPRPRPYCCPRP | -0.305 |
| RRIRPRPPRLPRPRPRPNGFPRP | -0.216 |
| RRIRFRPPRLPRPRPRPDCYPRP | -0.329 |
| RRIRMRPPRLPRPRPRPENGPRP | 0.0676 |
| RRIRHRPPRLPRPRPRPLEIPRP | -0.0535 |
| RRIRERPPRLPRPRPRPFYPPRP | -0.834 |
| RRIRHRPPRLPRPRPRPKYQPRP | -0.145 |
| RRIRQRPPRLPRPRPRPWRFPRP | -0.113 |
| RRIRNRPPRLPRPRPRPYRKPRP | -0.0658 |
| RRIRKRPPRLPRPRPRPAIAPRP | 0.802 |
| RRIRVRPPRLPRPRPRPSTVPRP | -0.0673 |
| RRIRRRPPRLPRPRPRPREKPRP | 0.0627 |
